The subject of this data set is rituximab (MabThera, lot N7075B10). The data set can be described thus: SAW. The following applies: 20 mM Tris-HCl pH 7.6, 100 mM NaCl, 2 mM MgCl2, 5 mM KCl, 1 mM CaCl2, 0.02% Tween 20; SAW at 22 C (protein A chip-captured rituximab); ELASA at room ….
As for “TATACTGGGCCGTGCGTGACTTTTCCGTGCTGCATGAGAG [RA4]”, the Kd is 354 nM.
Next, “CGTGGGTGGGGATTGTGGTTTGGCTGATGGGGTGCTGGTT [RA6]”: 887 nM; “CGGCGGGGGGAGGATTGTGGTCTGCTCATGGCTGCCGTTT [RA1]”: 683 nM; “GGGGGTGAGGATTGTGGTTTGGCTTATTGGTTTGCTGGTG [RA3]”: 713 nM.
“TGGGGGTAGGATTGTGGTTGGCTTTAATTGCTTTGGTGGT [RA2]” yielded a Kd of 394 nM.

Usually Kd stands for the equilibrium constant for the complex coming apart.

The values above are taken from PMC6358617.
